Substitutions are numbered along the chain they refer to. Names and notes keep the numbering of the source.
B1: RsbS (Bacillus subtilis), full length, residues 1-121, tag removed (natural protein, Bacillus subtilis strain 168, UniProt P42410 1-121, looked up)
chain: MRHPKIPILKLYNCLLVSIQWELDDQTALTFQEDLLNKIYETGANGVVIDLTSVDMIDSFIAKVLGDVITMSKLMGAKVVLTGIQPAVAVTLIELGIALEEIETALDLEQGLETLKRELGE
modifications: phosphoserine at 59 (seen in the crystal structure and by peptide mass fingerprinting; likely phosphorylated during expression in E. coli)
notes: RsbS, Bacillus subtilis strain 168 (ATCC 23857), full length, residues 1-121; only a STAS domain; Dimer in solution by SEC-MALS; 60 monomers form an icosahedron in the crystal; The model holds residues 4-119 (chain A) or 5-119 (other chains); A selenomethionine-labelled form was used for phasing; also called native RsbS; Bs RsbS; source: E. coli BL21 Star (DE3), purified (IMAC, TEV cleavage, …)
B2: RsbS S59A mutant (natural protein, Bacillus subtilis)
chain: B1 chain with S59A
notes: RsbS, Bacillus subtilis, with S59A, which restricts phosphorylation; the construct is not described
B3: RsbRA (Bacillus subtilis), full length, residues 1-274, native (pET-22b), of the RsbRA-RsbS complex (natural protein, Bacillus subtilis strain 168, UniProt P42409 1-274, looked up)
chain: MMSNQTVYQFIAENQNELLQLWTDTLKELSEQESYQLTDQVYENISKEYIDILLLSVKDENAAESQISELALRAVQIGLSMKFLATALAEFWKRLYTKMNDKRLPDQESTELIWQIDRFFSPINTEIFNQYSISWEKTVSLQKIALQELSAPLIPVFENITVMPLVGTIDTERAKRIMENLLNGVVKHRSQVVLIDITGVPVVDTMVAHHIIQASEAVRLVGAKCLLAGIRPEIAQTIVNLGIDLSQVITKNTLQKGIQTALEMTDRKIVSLGE
notes: RsbRA, Bacillus subtilis strain 168 (ATCC 23857), full length, residues 1-274; N-terminal nonheme globin domain and C-terminal STAS domain; also called native RsbRA; source: E. coli BL21 Star (DE3), co-purified with 6xHis-thioredoxin-RsbS (IMAC, TEV cleavage, SEC)

Experiments:
[1] = target: the molecule itself; experiment: crystal structure; RsbS 10 mg/ml; micro-batch at 20 C; 35% MPD, 100 mM MES/sodium hydroxide pH 6.0, 200 mM lithium sulfate; space group I23, five monomers in the asymmetric unit
[2] = target: the molecule itself; experiment: SEC-MALS; 200 ul of 1 mg/ml RsbS on a Superdex 200 analytical column; miniDAWN TREOS II MALS and Optilab rEX detectors
[3] = target: B3; experiment: cryo-EM structure; RsbRA-RsbS complex at 0.5 mg/ml in 20 mM HEPES pH 7.5, 50 mM NaCl, 0.2 mM TCEP, 5% glycerol; single-particle reconstruction with C1, D2 or I restraints; details: both partners purified
[4] = target: the molecule itself; experiment: as above

Binder	stoichiometry N [1]	stoichiometry N [2]	binding result [3]	binding result [4]
B1	60	2	binds	–
B2	–	2	–	–
B3	–	–	–	binds
